Consider three molecules from patent US20180344829A1 (INNATE PHARMA, published 2018).

As a reminder, the EC50 is the midpoint of the concentration-response curve. High values mean weaker potency, low ones greater potency.

The target in assay [1] is T1, human Siglec-10 expressed on CHO cells (human, UniProt Q96LC7 17-697).
T1 construct: NCBI NP_149121 is printed; also called huSiglec-10; Siglec-10 CHO transfectants
T1 sequence: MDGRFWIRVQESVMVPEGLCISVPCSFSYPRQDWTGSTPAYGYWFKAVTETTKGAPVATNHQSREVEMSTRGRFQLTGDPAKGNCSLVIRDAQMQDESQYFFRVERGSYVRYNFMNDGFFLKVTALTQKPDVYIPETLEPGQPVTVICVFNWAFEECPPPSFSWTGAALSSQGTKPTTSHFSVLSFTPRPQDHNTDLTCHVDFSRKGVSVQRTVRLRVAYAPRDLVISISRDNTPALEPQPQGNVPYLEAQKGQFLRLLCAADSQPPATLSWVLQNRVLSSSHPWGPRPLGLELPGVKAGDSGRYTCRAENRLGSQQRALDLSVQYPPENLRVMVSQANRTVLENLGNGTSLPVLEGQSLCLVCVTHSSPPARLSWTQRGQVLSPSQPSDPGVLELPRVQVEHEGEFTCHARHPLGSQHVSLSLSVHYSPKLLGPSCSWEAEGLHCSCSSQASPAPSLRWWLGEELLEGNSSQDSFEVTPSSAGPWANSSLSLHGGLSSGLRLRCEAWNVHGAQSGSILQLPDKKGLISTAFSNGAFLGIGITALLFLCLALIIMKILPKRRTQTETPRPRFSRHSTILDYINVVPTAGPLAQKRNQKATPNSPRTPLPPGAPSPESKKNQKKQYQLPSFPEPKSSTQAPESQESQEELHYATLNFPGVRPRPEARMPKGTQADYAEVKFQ
In words: flow cytometry on Siglec-10 expressing CHO cells. On the technique in general: A flow cytometer gives signals particle by particle.

Assay [2] addresses T2, human Siglec-7 expressed on CHO cells (human, UniProt Q9Y286 19-467).
T2 construct: NCBI NP_055200.1 is printed; also called Siglec-7 CHO transfectants
The assay can be described thus: flow cytometry on CHO transfectants. The method, then: (§1) Cells expressing Siglec-3, -5, -6, -7, -8, -9, -11 and -12 were generated using the amino acid sequences and Genbank references for Siglec polypeptides shown below in Table 2. Anti-Siglec-10 antibodies are tested by flow cytometry for binding to the cells. Binding of antibodies on human Siglec-10 was tested by flow cytometry on CHO cells transfected with human Siglec-10, human Siglec-7 or human Siglec-11. Cells were incubated 1h in Staining Buffer (SB) with primary antibodies at 8 ug/ml, then were washed three times with SB. Secondary Goat F(ab′)2 Anti-Human IgG (Fc) PE (Beckman Coulter) was incubated for 30 min at 4° C., cells were washed twice with SB. […] The 6 antibodies bound human Siglec-10 CHO transfectants with high differential in binding affinity over the control Siglec-7 or Siglec-11 CHO transfectants (no or only low residual binding to Siglec-7 or Siglec-11). […] The EC₅₀ as determined by flow cytometry for binding for S10-A antibody to Siglec-10 expressing CHO cells was 0.1 μg/ml.

In assay [3] the target is T1, human Siglec-10 expressed on CHO cells. The assay can be described thus: flow cytometry on CHO transfectants, antibodies at 8 ug/ml. On the procedure: as §1

T2 sequence (Q9Y286 19-467): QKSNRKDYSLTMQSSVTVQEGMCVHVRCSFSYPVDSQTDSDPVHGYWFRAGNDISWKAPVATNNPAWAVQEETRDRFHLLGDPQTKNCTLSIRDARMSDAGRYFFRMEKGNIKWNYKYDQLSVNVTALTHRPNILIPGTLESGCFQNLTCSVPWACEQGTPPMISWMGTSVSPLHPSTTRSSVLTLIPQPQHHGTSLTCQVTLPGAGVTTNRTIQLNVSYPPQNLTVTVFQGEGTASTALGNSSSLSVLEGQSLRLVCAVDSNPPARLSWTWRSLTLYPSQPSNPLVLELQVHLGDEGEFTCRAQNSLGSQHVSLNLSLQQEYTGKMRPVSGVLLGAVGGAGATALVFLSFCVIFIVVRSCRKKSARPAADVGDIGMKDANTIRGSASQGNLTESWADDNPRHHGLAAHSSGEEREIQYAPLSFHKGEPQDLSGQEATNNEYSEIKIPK

B1: antibody S10-A (antibody, human IgG1, V domains shown)
VH: QIQLQQSGAELEKPGASVKMSCKASGYTFTSYWMHWVKQRPGQGLEWIGYINPDTDSTEYNQKFRDKATLTADKSSSTAYMQLSSLTSEDSAVYYCARPYYRYAGYAMDYWGQGTSVTVSS
VL: DIKMTQSPSSMYASLGERVTITCKASQDINSYLSWFQQKPGKSPKTLIYRANRLVDGVPSRFSGSGSGQVYSLTISSLEYEDLGIYYCLQYDEFPWTFGGGTKLEIKR
notes: also called CHS2-S10-A
Molecule B1 came in with an EC50 in assay [1] of 0.1 µg/mL. For the same molecule, the binding result in assay [2] was “no binding (tested: 8 ug/ml)”.

B2: antibody S10-B (antibody, human IgG1, V domains shown)
VH: QVQLKESGPGLVAPSQSLSITCTVSGFSLTDYDVNWVRQPPGKGLEWLGMIWGDGITDYNSALKSRLSISKDNSKSQVFLEMNSLQTDDTARYYCARGGIYYFGNTYGYWFFDVWGAGTTVTVSS
VL: DIVMTQSPSSLAVSTGEKVTMSCKSSQSLLNSRTRKNYLAWYQQKPGQSPKLLIYWASTRESGVPDRFTGSGSGTDFTLTISSVQAEDLAVYYCKQSYNLRTFGGGTKLEIKR
notes: also called CHS2-S10-B
With B2, the binding result in assay [2] is recorded as “no binding (tested: 8 ug/ml)”; in assay [3], “binds”.

B3: antibody S10-C (antibody, human IgG1, V domains shown)
VH: QVQLKESGPGLVAPSQSLSITCTVSGFSLTDYDVNWVRQPPGKGLEWLGMIWGDGITDYNSALKSRLSISKDNSKSQVFLEMNSLQTDDTARYYCARGGIYYFGNTYGYWFFDVWGAGTTVTVSS
VL: EILLTQSPSSLAVSTGEKVTMSCKSSQSLLNSRTRKNYLAWYQQKPGQSPKLLIYWASTRESGVPDRFTGSGSGTDFTLTISSVQAEDLAVYYCKQSYNLRTFGGGTKLEIKR
notes: also called CHS2-S10-C
For B3, the results for the binding result in assay [2] and in assay [3] were “no binding (tested: 8 ug/ml)” and “binds”, respectively.
